According to PMC7049728, “The full-length structure of Thermus scotoductus OLD defines the ATP hydrolysis properties and catalytic mechanism of Class 1 OLD family nucleases” (Nucleic Acids Research, 2020):

B1: Ts OLD (Ts^FL) (Thermus scotoductus SA-01) (protein)
chain: MLKRLQVKNFRCLEDIDLPLGPLTAIVGPNGAGKTTILRAIDLVLGDVWPSLRSFRIPQDFINFDTTRAIEITVHFDPPYTQGSFNITAFRLTCKGEDADFHVDLEPLDEGGNVPRYPSGNPLRVGTDMRNHARVLFLDHRRNLAQHLPSIRGSILGRLLQPVRREFKLQDNFKQVYEQAMDLLRTEQVKQIEKTIAETAKQMLGFLGKDAMKSMEIGFGFADPANPFNSLRLQYRESDLTLPGDELGLGIQSAIVVGIFEAFRQLGEKIGTVIIEEPEMYLHPQAQRYFYRLLCEMADKDQCQIIYSTHSPIFADVNRFEALRLVRKDRDDRVVVSYVREEDKSALDNVRNRFKLGGRFDTARNEVLFAKRALLVEGYGDRVAALQLFNQLEVDPDAECIAVVDCGGKAGIELIVGVCKALDIPFVVVHDEDVWPIDERADEETRRKQEQENKAEQEKNQRIQACAGAERVFVVQPSLEAALGIGRNASDKPYRIAEILKTVDVGQPPDALRPFVEAIRQVTRP
notes: full-length, residues 1-525, C-terminal 6xHis tag (pET21b), codon-optimized, expressed in E. coli BL21(DE3); homodimer
B2: Thermus scotoductus OLD N-terminal region (residues 1-369) (domain or fragment, UniProt E8PLM2 1-369, looked up)
chain: MLKRLQVKNFRCLEDIDLPLGPLTAIVGPNGAGKTTILRAIDLVLGDVWPSLRSFRIPQDFINFDTTRAIEITVHFDPPYTQGSFNITAFRLTCKGEDADFHVDLEPLDEGGNVPRYPSGNPLRVGTDMRNHARVLFLDHRRNLAQHLPSIRGSILGRLLQPVRREFKLQDNFKQVYEQAMDLLRTEQVKQIEKTIAETAKQMLGFLGKDAMKSMEIGFGFADPANPFNSLRLQYRESDLTLPGDELGLGIQSAIVVGIFEAFRQLGEKIGTVIIEEPEMYLHPQAQRYFYRLLCEMADKDQCQIIYSTHSPIFADVNRFEALRLVRKDRDDRVVVSYVREEDKSALDNVRNRFKLGGRFDTARNEVLF
notes: Thermus scotoductus OLD, UniProt E8PLM2, N-terminal region encompassing the ATPase domain, residues 1-369; in pET21b; also called Ts^NTR; NTR; source: E. coli BL21(DE3), purified (65°C heat step, nickel column, HiTrap Q, SEC)
B3: full-length Thermus scotoductus OLD (enzyme, UniProt E8PLM2 1-528, looked up)
chain: MLKRLQVKNFRCLEDIDLPLGPLTAIVGPNGAGKTTILRAIDLVLGDVWPSLRSFRIPQDFINFDTTRAIEITVHFDPPYTQGSFNITAFRLTCKGEDADFHVDLEPLDEGGNVPRYPSGNPLRVGTDMRNHARVLFLDHRRNLAQHLPSIRGSILGRLLQPVRREFKLQDNFKQVYEQAMDLLRTEQVKQIEKTIAETAKQMLGFLGKDAMKSMEIGFGFADPANPFNSLRLQYRESDLTLPGDELGLGIQSAIVVGIFEAFRQLGEKIGTVIIEEPEMYLHPQAQRYFYRLLCEMADKDQCQIIYSTHSPIFADVNRFEALRLVRKDRDDRVVVSYVREEDKSALDNVRNRFKLGGRFDTARNEVLFAKRALLVEGYGDRVAALQLFNQLEVDPDAECIAVVDCGGKAGIELIVGVCKALDIPFVVVHDEDVWPIDERADEETRRKQEQENKAEQEKNQRIQACAGAERVFVVQPSLEAALGIGRNASDKPYRIAEILKTVDVGQPPDALRPFVEAIRQVTRPMEE
notes: Thermus scotoductus OLD (Class 1 OLD family nuclease), UniProt E8PLM2, full-length, residues 1-525; codon-optimised synthetic gene in pET21b; Dimer by SEC-MALS and by crystal symmetry; The crystal model holds residues 1-142, 149-237 and 245-525; also called Ts^FL; Ts OLD; source: E. coli BL21(DE3), purified (65°C heat step, nickel column, HiTrap Q, SEC)

What was measured:
[1] = substrate: Nc1ncnc2c1ncn2[C@@H]1O[C@H](COP(=O)(O)OP(=O)(O)OP(=O)(O)O)[C@@H](O)[C@H]1O; test: Malachite green phosphate release ATPase assay; type: biochemical, Thermus scotoductus; conditions: 65°C, 20 mM Tris-HCl pH 8, 50 mM NaCl, 5 mM MgCl2, no DNA (basal)
[2] = biological target: the molecule itself; test: SEC-MALS; 4 mg/ml loaded on Superdex 200 10/300 Increase; 20 mM HEPES pH 7.5, 150 mM KCl, 5 mM MgCl2, 1 mM DTT; 0.7 ml/min; Ts^FL also in different nucleotide states

Protein	Km [1] [µM]	kcat [1] [s⁻¹]	stoichiometry N [2]
B1	180 ± 26	0.00733 ± 0.005	
B2			2
B3			2
